Experimental findings from patent publication US20210238262A1 (published 2021) are described below.

In assay [1] the target is T1, Recombinant DENV-2 sE (1-396) from strain 16681-PDK53 with C-terminal AviTag and poly-histidine tags (UniProt P29991 281-676, biotinylated on the AviTag for BLI).
T1 chain: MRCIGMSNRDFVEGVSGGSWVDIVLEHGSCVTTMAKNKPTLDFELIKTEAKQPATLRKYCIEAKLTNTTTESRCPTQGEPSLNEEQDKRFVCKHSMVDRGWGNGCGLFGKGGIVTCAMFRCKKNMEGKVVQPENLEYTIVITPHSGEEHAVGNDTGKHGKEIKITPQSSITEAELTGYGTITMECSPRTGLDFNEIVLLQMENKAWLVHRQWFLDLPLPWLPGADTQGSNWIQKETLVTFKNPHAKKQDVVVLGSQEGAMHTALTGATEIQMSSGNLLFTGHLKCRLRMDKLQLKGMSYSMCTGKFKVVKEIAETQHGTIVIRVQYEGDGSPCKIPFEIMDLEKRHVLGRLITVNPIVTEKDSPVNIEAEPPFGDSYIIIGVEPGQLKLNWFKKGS
As to the kind of experiment: BLI; Fab.

The target of assay [2] is MZ2. Kind of assay: BLI; Fab. For orientation: In BLI a coated tip is dipped into the sample, and binding shifts an interference pattern.

B1: MZ4 Fab (Fab, V domains shown)
VH: QVHLQESGPGLVRPSETLSLTCTVSDGSISSYYWSWIRQPPGKGLEWIGSIYYTGSTNYNPSLKSRVTMSVDTSKNQFSLRLNSVTAADTAMYYCAGLDRYSWNEGGDHWGQGILVSVSS
VL: QPVLTQPPSASGTPGQRVSISCSGSRSNLGKNTVNWYQQLPGTAPKLLIYNHSRRPSGVPERFSGSKSGTSASLAISGLQSEDEADYFCAAWDDSLNGLYVFGTGTKVTVLR
With B1, the Kd (as a rule, the concentration at which binding is half-saturated) in assay [1] was 1 nM.

B2: DENV-2 E (other)
chain: T1 chain
modifications: biotinylated on the AviTag for BLI
As for B2, binding in assay [2] was put at a Kd of 0.4 nM.
